In patent US20240182540A1:

Target: EGFRvIII variant of EGFR, expressed on CT2AvIII cells (UniProt P00533)
Test: cell-based or functional assay

## third-generation EGFRvIII-targeting CAR (anti-EGFRvIII scFv clone 139 fused to CD8 hinge and TM, CD28, 4-1BB and CD3zeta), on transduced mouse T cells
  percent survival of tumor cells, in vitro cytotoxicity against a 70:30 mixture of CT2A:CT2AvIII, 24 h co-culture: 75%
